Source: the DeepSol protein solubility set

Test: soluble on expression in E. coli; label from the status in PepcDB or PDB records

Row | Sequence | soluble on expression in E. coli
1 | MSQIIIKTPQEIEKMRVAGRLAAEVLEMITPFVKEGVTTAELDKICHEYIVKEQDAYPAPLNYHGFPKSICASINHVVCHGIPADKKLKNGDILNIDITVKKDGYHGDTSKMFMIGEPSVMAKKLVEVTHECLWKGIEVVKPGNHFGDIGAAIEKHAKKFGYSIVDAFCGHGIGANFHEPPHVMHHGKAGTGAMFEEGMIFTIEPMINIGKRAVSVLKDGWTAVTKDRSLSAQWEHTILVTKDGYEVLTLREEEKN | not soluble
2 | MSQLLLNLEGKTKIKAIARKNDLCERKSSNLHHFCVEFHNNYEFLEIGLSEARSLASISDKNVLNSNRKAENYQKKWKNFEKESILKLNSIMEKISSHSQPSHHHTNASITLPYDATIQKIAEKEKNLSKLLKELSIVDSSLKEEKASFEKTQSALLKEKGKIEKDKLMLREEAQKQASMNAEVQKKELESQERLSVLNKQFMEENEKKVKLEQEELDSKNAYNDCLQLNIPNAESQMITDQLATLDEFYSDLNNNSSNEIMAEIPDFEEIIDLFNQFKSSMESQKDILNTLAGLEEQLGDHQLEIKSVRKDINKLKGLQGKQSFYKEELKLKKSALEEIQRKIDYDQDVLNSLKVVEKAAKPDDYLRPRNSRKESVFRKLPIPERSMQHDSDTLDTRKNSKTMLKNESTRHSNPGIRLLKVPNRDSDEESENSFDDGTTQDESGVNAFFGQLSDEKEESPTAVEFSMAAHLTEFSQRQAAAAAKMNMKTPEKKVVEIESDEDDDLDSSIIAPNRAKSKDDRKSDDSDDDLNDEEGDADQSIWGSDD | not soluble
3 | MSQPRTVTVLGATGSIGHSTLDLIERNLDRYQVIALTANRNVKDLADAAKRTNAKRAVIADPSLYNDLKEALAGSSVEAAAGADALVEAAMMGADWTMAAIIGCAGLKATLAAIRKGKTVALANKESLVSAGGLMIDAVREHGTTLLPVDSEHNAIFQCFPHHNRDYVRRIIITASGGPFRTTSLAEMATVTPERAVQHPNWSMGAKISIDSATMMNKGLELIEAFHLFQIPLEKFEILVHPQSVIHSMVEYLDGSILAQIGSPDMRTPIGHTLAWPKRMETPAESLDFTKLRQMDFEAPDYERFPALTLAMESIKSGGARPAVMNAANEIAVAAFLDKKIGFLDIAKIVEKTLDHYTPATPSSLEDVFAIDNEARIQAAALMESLPA | soluble
4 | MSRETNFNGTKRKRSDVAEKVAQRWKSVRYSAEMENMAPVNSNNDSDDCVIVSESKIIDLTNQEQDLSERIETNDTAKGAVFKLMKSDFYEREDFMGEVEDMITLKDIFGTETLKRSILFSFQYELDFLLRQFHQNVENITIVGQKGTIMPIEARAMDATLAVILKKVKLIEITMPPFASHHTKLIINFYDNGECKIFLPSNNFTSMETNLPQQVCWCSPLLKIGKEGLPVPFKRSLIEYLNSYHLKDIDELITKSVEEVNFAPLSELEFVYSTPSKFQSSGLLSFYNKLEKLSAGTSASDTAKHYLCQTSSIGTSLSRARDENLWTHLMIPLFTGIMSPPAKDTAGRKKAEILPTNSLINEYSQRKIKPYIIFPTEQEFVTSPLKWSSSGWFHFQYLQKKSYYEMLRNKFKVFYKQDPAMVTRRRGTTPAHSKFYMHCATNSAGPCDASQVFKELEWCLYTSANLSQTAWGTVSRKPRNYEAGVLYHSRRLANTRKVTCRTFTRDRRGCAGNPTHVAVPFTLPVIPYDLAEDECFCLARHEND | soluble
5 | MSRFAPATPLLLSLLLTSCSPAQGVRVERITGGGMLYTVATVDPARDQLTLHWLNPATGKPYSSFAQLGSRLGKQGKKLLFATNSGIYMPGPKPLGLHVEGGKTLVGLNNAGKGGGNFALLPNGVFWLRGKKAGVTETQAYRKLGLAPDYATQSGPLLVANGKLHPDFNKSGTSFKVRSGVGVCGGGKVRFAISAGPVNFYSFATFFRDTLGCPDALYLDGSISAYATPDTDTQFTEFAGIWAVTARLEHHHHHH | soluble
6 | MSRIEFIRKEEKKYHDFCYENYKLFEEGSWLYKPVKTVIELLPILDERTSPKVLDLGSGVGRNSIPIAKEIKNKNGKVICVDLLDSALDKLKLYSKEYEVEEVIETMKADIGHYDIAKNEYDLIVAVSTLEHVESENVFEKVIKKMASGTKNEGINCIIVNSEVEEIDISTNEKLDAMMEVNMKTKDMLSKLRQSYNGWEIVNQLVKPLEYKIVRDERDVLLKTNAITFAVKKKLEHHHHHH | not soluble
7 | MSRIEQLISDIESYIDNCKYYPLSNVKIIVNKEQLEDMLTELRLKTPDEVKKYQKILSNKDAILADAKEQADAIINAAQIQTEELINEHEIMQRAYAQANELIEQATAQAQTILDNATEEANSIRYGAMQYTDDMLAKLQYIIEHSIKDNKEKYDSLLSGLENVLSVVNNNRNELSGIEENSTEESADTDASNETDSQSDDEE | not soluble
8 | MSRKIPKEPTTRPAFNAYEKHVRDINNFVIPYQRENKYKKVVGETDLDVLKREYRFIRESEEEDAKSWETRLARRHYERLYKDYAIAELSQWREGSVGFRWLNQTEVLQGKGYSCCAATDCDSASELNTFEVPFTYEEDGETKATLVKVRLCRSCQVKMRESYRIAREKLK | soluble
9 | MSRLPTTPCEQLKLDNQLCFALYSTSLQMTKVYKPLLQALGLTYPQYIAMLVLWERDGLTVGEISARMLTDPGSLTPLLKRLEGEGLITRTRSSEDERVVLLRLTDKGRALQRQAESIPACILESTGLDLPQLVALKDELLALRGNLQAPD | not soluble
10 | MSRQCTHYGRWPQHGFTSLKKLRPQSVTSRIQPGSDVIVCAEMDEHWGYVGAKSRQRWLFYAYDRIRRTVVAHVFGERTLATLERLLSLLSAFEVVVWMTDGWPLYESRLKGKLHVISKRYTQRIERHNLNLRQHLARLVRKSLSFSKSVELHDKVIGHYLNIKHYQLEHHHHHH | not soluble
11 | MSRRLPPLNSLRVFEAAARHLSFTRAAEELFVTQAAVSHQIKALEEFLGLKLFRRRNRSLLLTEEGQSYFLDIKEIFSSLSEATDKVLERSAKGALTISLPPSFAIQWLVPRLSDFNNQEPDIDVRIKAVDMDEGSLTEDVDVAIYYGRGNWPGLRVELLYQEQLLPLCSPQVLLNEKPLATIDDLRFHTLLHDTSRKDWKQFVKHYELAGMNVNQGPIFSHSTMVLQAAAHGQGIALGNNVLAQPELDAGRLVAPFEEVLVSKNAFYLVCNEKQADTGRIATFREWILSKARSEQEIVDDE | soluble
12 | MSRTVIRAQPFFLQAAPGSREQLANPRGFTTFVLEASWSTGLRLDTYVTRGLGDPEQIMREEFQGQYVFWDTDEYLDLIRWMRHYNVSHPGRPTLRFVGNDLGYPGPEAFDQVTSYVTAHRPGVAERIATLYAGLRPARSASAGAWMGQQLTKDLASRRAEAARAERALTLLCASGRPRGSAGRAYNWAVQNATAVAQSFTGYAFPDEEFPERMRYRDQAMADNTAWWLAHTNGRILLASNNGHVAYTSDNPQEFPEPVGAFLRKKLGRKYVSVGLTFSEGSLNALPDFTAGQPQKYAVDPAPAGHNEHTLDQVRHRDFALDLRTAPPAARAWLDTARPTRSYGLYWSDQDPETALGRSYDIVIHLHRVEAARLWAFTSVKDGQSYRLEHHHHHH | not soluble
13 | MSRVYTLLTGLLLSLIALSLQAAQLTASVDRTRLNAGETVELTLETDDVTQFGKPDMSSLEASFEVRDTRQLNSLKTLDGSSQATTRWIVTLLPRETGSVIIPSLQLGELKSQPLTLQVMQSETKEPTSHLASIFIEASLDQDSVYVQAQAVLTLRVYHSVSLFDDSSLN | not soluble
14 | MSSAPPAPRVIAVVGPTAAGKSDLGVFLAQRLGGEVVNADSMQLYRGMDIGTAKLTPEERGGVPHHLLDIWDVTVTASVAEYQRLARERIDALLAEGRWPILVGGSGLYVRGAVDNLEFPGTDPGIRARLEEELELRGPGALHARLAVADPEAARAILPSNGRRIVRALEVIEITGRPFTANLPGHDSVYDTVQIGVDVARPELHERIALRVDRMWEAGLVDEVRALEAQGLREGRTASRALGYQQVLAALAGECTLDEARAETVRATKRFARRQDSWFRRDPRVHWLSGGVADRTELPRLALSLVERPVTALEHHHHHH | not soluble
